In the supplement of paper PMC11865577:

Columns and labels:
Assay in all cases: pull-down binding Z-score (relative to library population); higher = stronger binding
[1] = tested on: G-clamp-N3 (biotin conjugate); conditions: RNA library: Library-1 (pre-miRNA loops + repeats)
How it was run: (§1)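 The RNA library, end-labelled with Cy5 or Cy3, was heat-folded in phosphate/NaCl/KCl buffer, and 1 μg was incubated at 25 °C for 60 min with streptavidin beads carrying 100 pmol of biotin-conjugated small molecule. Hot SDS released the bound RNA, which was then hybridised to a DNA barcode microarray for 20 h at 55.5 °C. For scoring binding, signal from beads alone was subtracted, replicate barcoded probes were averaged after discarding the highest and lowest, and each value was turned into a Z-score from the library mean and standard deviation.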

[2] = tested on: TO-N3-2 (biotin conjugate); conditions: RNA library: Library-2
How it was run: as §1

[3] = tested on: TO-3-N3 (biotin conjugate); conditions: RNA library: Library-2
How it was run: as §1

[4] = tested on: TO-N3 (biotin conjugate); conditions: RNA library: Library-2
How it was run: as §1

[5] = tested on: TO-3-N3-2 (biotin conjugate); conditions: RNA library: Library-2
How it was run: as §1

Row | Sequence | pull-down binding Z-score [1] | pull-down binding Z-score [2] | pull-down binding Z-score [3] | pull-down binding Z-score [4] | pull-down binding Z-score [5]
1 | UCCUGUAGUGUCUUAUAUACAAUACAGUAGGA [hsa-mir-613] | -0.0831 | -0.539 | -0.741 | -0.743 | -0.802
2 | UCCUUUUCUCUACCUUGUAGAGAAGCA [hsa-mir-3609] | -0.207 | -0.258 | 0.0918 | 0.281 | -0.379
3 | UCGAGAGGUCAGAGGAUUGCUCCUGA [hsa-mir-5585] | 3.56 | 1.67 | 0.00526 | 0.496 | -0.227
4 | UCGCCUAGGGCUCUGAGCAGGGCA [hsa-mir-211] | 1.4 | 1.47 | 1.36 | 1.72 | 0.463
5 | UCGGCACUAUUGUGACUGU [hsa-mir-7855] | -0.0938 | 0.0889 | 0.693 | 0.611 | -0.16
6 | UCGUCAGUGUUUGA [hsa-mir-8073] | -0.342 | -0.296 | -0.443 | -0.468 | -0.295
7 | UCUAUCUGUAUUCUUACUGAAGGGA [hsa-mir-504] | 0.763 | -0.728 | -0.739 | -0.937 | -0.42
8 | UCUCAAAAUAAUUCUGCAGUGAGA [hsa-mir-4524b] | 2.26 | -0.868 | -0.872 | -1.13 | 0.0866
9 | UCUCAAUCCAUUCAUAUUGAAA [hsa-mir-3662] | -1.04 | -0.68 | 0.563 | 0.226 | -0.33
10 | UCUGCAGGUUCGCACUGAUGCCUGCUCG [hsa-mir-6726] | 0.44 | 0.569 | 0.0628 | 0.309 | -0.102
11 | UCUGCUUUAUUUCAUCAAAGCAGA [hsa-mir-4773-1] | -0.484 | -1.41 | -0.916 | -1.36 | -0.676
12 | UCUGCUUUGAUGAAAUAAAGCAGA [hsa-mir-4773-2] | -0.541 | -1.05 | -0.145 | -0.206 | -0.423
13 | UCUGGGGAGAGAGUCCUCUUUUCAGC [hsa-mir-8082] | -0.804 | 0.614 | 0.432 | 0.571 | -0.234
14 | UCUGUUGCUUGAAAGAAGAGA [hsa-mir-526a-1] | 1.67 | 0.215 | 0.85 | 0.922 | -0.154
15 | UCUGUUGUCUGAAAGAAAACA [hsa-mir-518b_518c] | -0.569 | 0.0545 | -0.441 | -0.285 | 0.0546
16 | UCUGUUUGUUUUCUCUUAAACA [hsa-mir-519d] | -0.0316 | -0.847 | -0.418 | -0.828 | -0.553
17 | UCUGUUUUAAGUAACAGA [hsa-mir-7705] | 0.244 | -1.85 | -0.812 | -1.32 | -0.214
18 | UCUUAGACUAUUACAAGA [hsa-mir-3672] | -0.633 | -0.526 | 0.922 | 0.614 | 0.0159
19 | UCUUAGCACGGGGUCUAAGG [hsa-mir-4747] | 0.0593 | -0.257 | -0.188 | -0.33 | -0.0231

Row | Sequence | pull-down binding Z-score [1] | pull-down binding Z-score [2] | pull-down binding Z-score [3] | pull-down binding Z-score [4] | pull-down binding Z-score [5]
20 | UCUUCCCAAAGUUGAGAAAA [hsa-mir-320d-1] | -1.32 | -0.758 | -0.611 | -0.746 | -0.407
21 | UCUUCCCAGAAUUGGGAAAA [hsa-mir-320c-2] | -0.574 | -1.68 | -0.813 | -1.33 | -0.72
22 | UCUUCCCAGAGUCAGGAAAA [hsa-mir-320c-1] | -1.1 | 0.191 | -0.17 | -0.0041 | -0.0416
23 | UCUUCCCGGAGUCGGGAAAA [hsa-mir-320a] | 1.85 | -0.901 | -0.0669 | -0.187 | -0.307
24 | UCUUCUUGGAGUCAGGAAAA [hsa-mir-320d-2] | -0.411 | -0.514 | -0.553 | -0.663 | -0.458
25 | UCUUCUUUUGGAAGGAAGA [hsa-mir-3122] | 0.729 | -1.53 | -0.175 | -0.591 | -0.532
26 | UCUUGAAUUUUUGCCAGUUCAAGA [hsa-mir-5197] | 0.24 | -1.38 | -0.956 | -1.33 | -0.517
27 | UCUUGGUGCCACCAUUGAGAACGCCAGGA [hsa-mir-492] | -1.02 | 0.868 | -0.644 | -0.279 | -0.506
28 | UCUUUCAUUUUGGAUUUGACU [hsa-mir-766] | -0.725 | -0.612 | 0.116 | -0.0798 | -0.03
29 | UCUUUGGUAAUAAGGUUUGGCAAAGA [hsa-mir-576] | 1.47 | -0.0599 | 1.04 | 0.862 | 0.625
30 | UGAAAGGUUUUUUCUCUCA [hsa-mir-4797] | 0.0116 | -0.918 | -0.332 | -0.402 | -0.248
31 | UGAACAGUGAUUGGUUUCCGCUUUGUUCA [hsa-mir-27b] | -0.672 | -0.317 | 0.138 | 0.133 | 0.275
32 | UGAAGAAGAGUAUUGAUUGUGCUGUUCG [hsa-mir-6788] | 0.592 | 0.16 | 0.425 | 0.494 | -0.00107
33 | UGAAGCCCCGAGAUGCCUCACGUCUUCA [hsa-mir-6802] | -1.85 | 0.573 | 0.00057 | 0.243 | -0.123
34 | UGAAGGUCACCAUGUUCUCCUUG [hsa-mir-3187] | -0.816 | -0.229 | 0.0716 | 0.145 | -0.354
35 | UGAAUAUGUAAUAUAAGUGUAUUG [hsa-mir-450b] | 0.397 | -0.284 | 0.214 | 0.261 | 0.32
36 | UGAAUUGAAAUGCGUUACAUUCA [hsa-mir-95] | -0.13 | 0.088 | 0.0702 | -0.0852 | -0.0666
37 | UGACUACUUCGAAAAUGGGAAGUAGACA [hsa-mir-7849] | 3.04 | -0.497 | 0.0977 | 0.00324 | -0.277
38 | UGACUCAGAUCU [hsa-mir-759] | -1.38 | -0.155 | -0.321 | -0.271 | -0.249
